Experimental data taken from paper doi:10.1101/851345.

Key:
[1] = biological target: TerL^P74-26, large terminase of bacteriophage P74-26 (bacteriophage P74-26)
[2] = biological target: TerS^P74-26, small terminase of the thermophilic bacteriophage P74-26 (gp83) (bacteriophage P74-26); test: SEC-MALS

Substance: TerS^P74-26, small terminase of the thermophilic bacteriophage P74-26 (gp83) (natural protein)
- ATPase activity of TerL^P74-26 upon mixing with gp83, no DNA present [1]: 4.4 fold
- stoichiometry N [2]: 9
